Source: patent publication US20230287108A1 (published 2023)

Target: T1, recombinant cynomolgus monkey (Macaca fascicularis) transferrin receptor 1 (cTfR1) (cynomolgus monkey (Macaca fascicularis), UniProt Q5RDH6 87-760 (Pongo abelii entry), limits assumed)
T1 construct: Recombinant protein; also called cyTfR1; cyno TfR1
T1 chain: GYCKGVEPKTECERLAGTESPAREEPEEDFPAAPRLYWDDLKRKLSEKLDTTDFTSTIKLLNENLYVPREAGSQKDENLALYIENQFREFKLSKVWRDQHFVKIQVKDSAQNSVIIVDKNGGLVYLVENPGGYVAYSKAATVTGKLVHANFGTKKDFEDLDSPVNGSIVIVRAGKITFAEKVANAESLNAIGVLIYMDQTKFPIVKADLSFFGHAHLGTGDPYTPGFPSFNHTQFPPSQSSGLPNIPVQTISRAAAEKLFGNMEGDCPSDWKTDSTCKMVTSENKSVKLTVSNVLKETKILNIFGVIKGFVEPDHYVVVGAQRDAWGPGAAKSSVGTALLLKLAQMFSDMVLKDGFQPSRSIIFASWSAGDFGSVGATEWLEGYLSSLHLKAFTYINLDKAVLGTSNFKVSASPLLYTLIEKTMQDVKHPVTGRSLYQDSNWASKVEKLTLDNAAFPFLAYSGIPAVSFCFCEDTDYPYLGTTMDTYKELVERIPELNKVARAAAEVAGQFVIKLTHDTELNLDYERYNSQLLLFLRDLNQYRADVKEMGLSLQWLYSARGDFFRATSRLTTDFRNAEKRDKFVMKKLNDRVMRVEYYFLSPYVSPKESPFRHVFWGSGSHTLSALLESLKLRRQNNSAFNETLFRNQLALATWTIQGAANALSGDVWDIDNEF
Experiment: Avg KD, antibody alone; table gives no method

- Kd: 1 nM
B1: 15G11 (control anti-TfR1 antibody) (antibody, V domains shown)
VH: QVQLQQPGAELVKPGASVKLSCKASGYTFTSYWMHWVKQRPGQGLEWIGEINPTNGRTNYIEKFKSKATLTVDKSSSTAYMQLSSLTSEDSAVYYCARGTRAYHYWGQGTSVTVSS
VL: DIQMTQSPASLSVSVGETVTITCRASDNLYSNLAWYQQKQGKSPQLLVYDATNLADGVPSRFSGSGSGTQYSLKINSLQSEDFGTYYCQHFWGTPLTFGAGTKLELK
